# Experimental data: patent US20140294898A1 (published 2014)
# Positions of bridges follow the written chain, without caps; N, C: chain ends. Non-standard residues stand in square brackets, D forms with d. NMeNle = CCCC[C@H](NC)C(=O)O; NMeA = CN[C@@H](C)C(=O)O
# Target: T1, human PD-L1 (human, UniProt Q9NZQ7 19-239, limits assumed)
# T1 construct: also called Hu PD-L1; hPD-L1
# Assay: cell binding assay, inhibition of human PD-L1/PD-1 binding (cell format not given)
# T1 sequence (Q9NZQ7 19-239 limits assumed): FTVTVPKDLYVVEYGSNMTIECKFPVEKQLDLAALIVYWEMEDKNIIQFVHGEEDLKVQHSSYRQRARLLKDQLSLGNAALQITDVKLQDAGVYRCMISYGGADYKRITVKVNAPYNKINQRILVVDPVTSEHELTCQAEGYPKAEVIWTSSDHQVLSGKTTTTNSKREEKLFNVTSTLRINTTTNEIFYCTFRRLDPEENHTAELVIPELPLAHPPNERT
row,IC50 [nM],Binder
1,203,"FFXGDVFYGWYLCG (HELM PEPTIDE1{[O=C(C[*:3])[*:2]].F.[meF].[CCCC[C@@H](C(=O)[*:2])N(C)[*:1]].[Sar].D.V.F.Y.[Sar].W.Y.L.C.G.[am]}$PEPTIDE1,PEPTIDE1,1:R3-14:R3$$$V2.0; SMILES CCCC[C@H]1C(=O)N(C)CC(=O)N[C@@H](CC(=O)O)C(=O)N[C@@H](C(C)C)C(=O)N[C@@H](Cc2ccccc2)C(=O)N[C@@H](Cc2ccc(O)cc2)C(=O)N(C)CC(=O)N[C@@H](Cc2c[nH]c3ccccc23)C(=O)N[C@@H](Cc2ccc(O)cc2)C(=O)N[C@@H](CC(C)C)C(=O)N[C@H](C(=O)NCC(N)=O)CSCC(=O)N[C@@H](Cc2ccccc2)C(=O)N(C)[C@@H](Cc2ccccc2)C(=O)N1C, Variant of Compound No. 71: mPhe7 to Phe (N-methyl removed)) [Compound No. 82]"
2,75,"FFXGDVFAGWYLCG (HELM PEPTIDE1{[O=C(C[*:3])[*:2]].F.[meF].[CCCC[C@@H](C(=O)[*:2])N(C)[*:1]].[Sar].D.V.[meF].A.[Sar].W.Y.L.C.G.[am]}$PEPTIDE1,PEPTIDE1,1:R3-14:R3$$$V2.0; SMILES CCCC[C@H]1C(=O)N(C)CC(=O)N[C@@H](CC(=O)O)C(=O)N[C@@H](C(C)C)C(=O)N(C)[C@@H](Cc2ccccc2)C(=O)N[C@@H](C)C(=O)N(C)CC(=O)N[C@@H](Cc2c[nH]c3ccccc23)C(=O)N[C@@H](Cc2ccc(O)cc2)C(=O)N[C@@H](CC(C)C)C(=O)N[C@H](C(=O)NCC(N)=O)CSCC(=O)N[C@@H](Cc2ccccc2)C(=O)N(C)[C@@H](Cc2ccccc2)C(=O)N1C, Variant of Compound No. 71: Tyr8 to Ala) [Compound No. 83]"

# Further lines, the binder ahead of its results:
row,Binder,IC50 [nM]
1,"FFAGDVFYGWYLCG (HELM PEPTIDE1{[O=C(C[*:3])[*:2]].F.[meF].[meA].[Sar].D.V.[meF].Y.[Sar].W.Y.L.C.G.[am]}$PEPTIDE1,PEPTIDE1,1:R3-14:R3$$$V2.0; SMILES CC(C)C[C@@H]1NC(=O)[C@H](Cc2ccc(O)cc2)NC(=O)[C@H](Cc2c[nH]c3ccccc23)NC(=O)CN(C)C(=O)[C@H](Cc2ccc(O)cc2)NC(=O)[C@H](Cc2ccccc2)N(C)C(=O)[C@H](C(C)C)NC(=O)[C@H](CC(=O)O)NC(=O)CN(C)C(=O)[C@H](C)N(C)C(=O)[C@H](Cc2ccccc2)N(C)C(=O)[C@H](Cc2ccccc2)NC(=O)CSC[C@@H](C(=O)NCC(N)=O)NC1=O, Variant of Compound No. 71: mNle3 to mAla) [Compound No. 75]",438
2,"FFXGDVFYGWYLCG (HELM PEPTIDE1{[O=C(C[*:3])[*:2]].F.[meF].[CCCC[C@@H](C(=O)[*:2])N(C)[*:1]].[Sar].D.V.[meF].Y.[Sar].W.Y.L.C.G.[am]}$PEPTIDE1,PEPTIDE1,1:R3-14:R3$$$V2.0; SMILES CCCC[C@H]1C(=O)N(C)CC(=O)N[C@@H](CC(=O)O)C(=O)N[C@@H](C(C)C)C(=O)N(C)[C@@H](Cc2ccccc2)C(=O)N[C@@H](Cc2ccc(O)cc2)C(=O)N(C)CC(=O)N[C@@H](Cc2c[nH]c3ccccc23)C(=O)N[C@@H](Cc2ccc(O)cc2)C(=O)N[C@@H](CC(C)C)C(=O)N[C@H](C(=O)NCC(N)=O)CSCC(=O)N[C@@H](Cc2ccccc2)C(=O)N(C)[C@@H](Cc2ccccc2)C(=O)N1C, Macrocyclic peptide of the Formula II series; X = norleucine backbone (N-methylated)) [Compound No. 71]",10
3,"FFXGDAFYGWYLCG (HELM PEPTIDE1{[O=C(C[*:3])[*:2]].F.[meF].[CCCC[C@@H](C(=O)[*:2])N(C)[*:1]].[Sar].D.A.[meF].Y.[Sar].W.Y.L.C.G.[am]}$PEPTIDE1,PEPTIDE1,1:R3-14:R3$$$V2.0; SMILES CCCC[C@H]1C(=O)N(C)CC(=O)N[C@@H](CC(=O)O)C(=O)N[C@@H](C)C(=O)N(C)[C@@H](Cc2ccccc2)C(=O)N[C@@H](Cc2ccc(O)cc2)C(=O)N(C)CC(=O)N[C@@H](Cc2c[nH]c3ccccc23)C(=O)N[C@@H](Cc2ccc(O)cc2)C(=O)N[C@@H](CC(C)C)C(=O)N[C@H](C(=O)NCC(N)=O)CSCC(=O)N[C@@H](Cc2ccccc2)C(=O)N(C)[C@@H](Cc2ccccc2)C(=O)N1C, Variant of Compound No. 71: Val6 to Ala) [Compound No. 80]",723

# Target: T2, human PD-L1 (human, UniProt Q9NZQ7 19-239, limits assumed)
# T2 construct: also called Hu PD-L1; hPD-L1
# Assay: cell binding assay, inhibition of human PD-L1/PD-1 binding on cells (cell format not given)
# T2 sequence (Q9NZQ7 19-239 limits assumed): as above
row,IC50 [nM],Binder
1,43,"{CH2CO}-F[NMeA]NPHHSWRW[NMeNle][NMeNle]LCG-NH2 (thioether N-14; SMILES CCCC[C@H]1C(=O)N(C)[C@@H](CCCC)C(=O)N[C@@H](CC(C)C)C(=O)N[C@H](C(=O)NCC(N)=O)CSCC(=O)N[C@@H](Cc2ccccc2)C(=O)N(C)[C@@H](C)C(=O)N[C@@H](CC(N)=O)C(=O)N2CCC[C@H]2C(=O)N[C@@H](Cc2c[nH]cn2)C(=O)N[C@@H](Cc2c[nH]cn2)C(=O)N[C@@H](CO)C(=O)N[C@@H](Cc2c[nH]c3ccccc23)C(=O)N[C@@H](CCCNC(=N)N)C(=O)N[C@@H](Cc2c[nH]c3ccccc23)C(=O)N1C, also called Compound 2) [Compound No. 2]"
2,15,"{CH2CO}-F[NMeA]NPLRSWRW[NMeNle][NMeNle]LCG-NH2 (thioether N-14; SMILES CCCC[C@H]1C(=O)N(C)[C@@H](CCCC)C(=O)N[C@@H](CC(C)C)C(=O)N[C@H](C(=O)NCC(N)=O)CSCC(=O)N[C@@H](Cc2ccccc2)C(=O)N(C)[C@@H](C)C(=O)N[C@@H](CC(N)=O)C(=O)N2CCC[C@H]2C(=O)N[C@@H](CC(C)C)C(=O)N[C@@H](CCCNC(=N)N)C(=O)N[C@@H](CO)C(=O)N[C@@H](Cc2c[nH]c3ccccc23)C(=O)N[C@@H](CCCNC(=N)N)C(=O)N[C@@H](Cc2c[nH]c3ccccc23)C(=O)N1C, also called Compound 4) [Compound No. 4]"

# Target: T3, hPDL1(19-239)-TVMV-His (human, UniProt Q9NZQ7 19-239)
# T3 construct: The construct name says 19-239, the running text says amino acids 18-239; Expressed in HEK293T cells; also called PD-L1-His; PD-L1-TVMV-His
# T3 sequence (Q9NZQ7 other isoform, or with tags, fused parts or gaps limits assumed): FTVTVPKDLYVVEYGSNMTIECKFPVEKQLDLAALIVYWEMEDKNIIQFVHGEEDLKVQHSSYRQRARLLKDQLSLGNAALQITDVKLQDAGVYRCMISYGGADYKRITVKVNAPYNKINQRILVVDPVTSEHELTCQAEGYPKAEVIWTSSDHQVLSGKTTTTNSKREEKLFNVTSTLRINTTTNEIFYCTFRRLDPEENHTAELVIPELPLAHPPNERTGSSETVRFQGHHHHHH
# Assay: HTRF competition, PD-1-Ig (20 nM) binding to human PD-L1-His (10 nM)
# Description: All binding studies were performed in an HTRF assay buffer consisting of dPBS supplemented with 0.1% (w/v) bovine serum albumin and 0.05% (v/v) Tween-20. […] PD-L1 fusion proteins from either human, cynomologous macaques, or mouse were used. HTRF detection was achieved using europium crypate-labeled anti-Ig monoclonal antibody (1 nM final) and allophycocyanin (APC) labeled anti-His monoclonal antibody (20 nM final). Antibodies were diluted in HTRF detection buffer and 5 μl was dispensed on top of binding reaction. The reaction was allowed to equilibrate for 30 minutes and signal (665 nm/620 nm ratio) was obtained using an EnVision fluorometer. […]
# HTRF experiments were performed essentially as outlined supra. Variant macrocyclic peptides were created as outlined herein.
row,IC50 [nM],Binder
1,191,"FFXGDVFYGWYLCG (HELM PEPTIDE1{[O=C(C[*:3])[*:2]].F.[meF].[CCCC[C@@H](C(=O)[*:2])N(C)[*:1]].[Sar].D.V.[meF].Y.G.W.Y.L.C.G.[am]}$PEPTIDE1,PEPTIDE1,1:R3-14:R3$$$V2.0; SMILES CCCC[C@H]1C(=O)N(C)CC(=O)N[C@@H](CC(=O)O)C(=O)N[C@@H](C(C)C)C(=O)N(C)[C@@H](Cc2ccccc2)C(=O)N[C@@H](Cc2ccc(O)cc2)C(=O)NCC(=O)N[C@@H](Cc2c[nH]c3ccccc23)C(=O)N[C@@H](Cc2ccc(O)cc2)C(=O)N[C@@H](CC(C)C)C(=O)N[C@H](C(=O)NCC(N)=O)CSCC(=O)N[C@@H](Cc2ccccc2)C(=O)N(C)[C@@H](Cc2ccccc2)C(=O)N1C, macrocyclic peptide cyclized via the ClAc moiety with the downstream cysteine; variant of Compound No. 71 (Gly instead of Sar at 9)) [Compound No. 85]"
2,42,"FFXGDVFYAWYLCG (HELM PEPTIDE1{[O=C(C[*:3])[*:2]].F.[meF].[CCCC[C@@H](C(=O)[*:2])N(C)[*:1]].[Sar].D.V.[meF].Y.[meA].W.Y.L.C.G.[am]}$PEPTIDE1,PEPTIDE1,1:R3-14:R3$$$V2.0; SMILES CCCC[C@H]1C(=O)N(C)CC(=O)N[C@@H](CC(=O)O)C(=O)N[C@@H](C(C)C)C(=O)N(C)[C@@H](Cc2ccccc2)C(=O)N[C@@H](Cc2ccc(O)cc2)C(=O)N(C)[C@@H](C)C(=O)N[C@@H](Cc2c[nH]c3ccccc23)C(=O)N[C@@H](Cc2ccc(O)cc2)C(=O)N[C@@H](CC(C)C)C(=O)N[C@H](C(=O)NCC(N)=O)CSCC(=O)N[C@@H](Cc2ccccc2)C(=O)N(C)[C@@H](Cc2ccccc2)C(=O)N1C, macrocyclic peptide cyclized via the ClAc moiety with the downstream cysteine; variant of Compound No. 71 (mAla at 9)) [Compound No. 84]"
3,25,"FFXGDVFYGWYACG (HELM PEPTIDE1{[O=C(C[*:3])[*:2]].F.[meF].[CCCC[C@@H](C(=O)[*:2])N(C)[*:1]].[Sar].D.V.[meF].Y.[Sar].W.Y.A.C.G.[am]}$PEPTIDE1,PEPTIDE1,1:R3-14:R3$$$V2.0; SMILES CCCC[C@H]1C(=O)N(C)CC(=O)N[C@@H](CC(=O)O)C(=O)N[C@@H](C(C)C)C(=O)N(C)[C@@H](Cc2ccccc2)C(=O)N[C@@H](Cc2ccc(O)cc2)C(=O)N(C)CC(=O)N[C@@H](Cc2c[nH]c3ccccc23)C(=O)N[C@@H](Cc2ccc(O)cc2)C(=O)N[C@@H](C)C(=O)N[C@H](C(=O)NCC(N)=O)CSCC(=O)N[C@@H](Cc2ccccc2)C(=O)N(C)[C@@H](Cc2ccccc2)C(=O)N1C, macrocyclic peptide cyclized via the ClAc moiety with the downstream cysteine; variant of Compound No. 71 (Ala at 12)) [Compound No. 87]"
4,820,"FFXGDVFYGWALCG (HELM PEPTIDE1{[O=C(C[*:3])[*:2]].F.[meF].[CCCC[C@@H](C(=O)[*:2])N(C)[*:1]].[Sar].D.V.[meF].Y.[Sar].W.A.L.C.G.[am]}$PEPTIDE1,PEPTIDE1,1:R3-14:R3$$$V2.0; SMILES CCCC[C@H]1C(=O)N(C)CC(=O)N[C@@H](CC(=O)O)C(=O)N[C@@H](C(C)C)C(=O)N(C)[C@@H](Cc2ccccc2)C(=O)N[C@@H](Cc2ccc(O)cc2)C(=O)N(C)CC(=O)N[C@@H](Cc2c[nH]c3ccccc23)C(=O)N[C@@H](C)C(=O)N[C@@H](CC(C)C)C(=O)N[C@H](C(=O)NCC(N)=O)CSCC(=O)N[C@@H](Cc2ccccc2)C(=O)N(C)[C@@H](Cc2ccccc2)C(=O)N1C, macrocyclic peptide cyclized via the ClAc moiety with the downstream cysteine; variant of Compound No. 71 (Ala at 11)) [Compound No. 86]"
